The chains are these.
B1: Hammerhead Ribozyme (parent)
chain: ACCGGAUGUGCUUUCCGGUCUGAUGAGUCCGUGAGGACGAAACAG

Variants of B1 are the subject of the data set. In words: self-cleavage, relative activity (ratio to wild type); higher = more cleavage; co-transcriptional.
In the case of A1G C43A, the self-cleavage was 0.444. Next, U14G A34G: 0.652. As to G4U U28C, the self-cleavage stood at 0.266. Next, A40U G45A: 0.343; G25C A40C: 0.359; C38U: 0.974. To G8U C30A belongs 0.803; to C3G C20G, 0.317. Next, G18U C20G: 0.382. Take G22C G25C: the self-cleavage worked out at 0.319.

Turning to A42C C43A, the self-cleavage was found to be 0.368. With A1C C20U, the self-cleavage came to 0.376. To A1U A44G belongs 0.971.

As to G35A A41U, the self-cleavage turned out to be 0.278. Next, A1U C38A: 0.528; C15G G22U: 0.352; G5C C38A: 0.264. For the variant C2G G33U, the self-cleavage came to 0.535. To U14C G17C belongs 0.342. To U13G U21G belongs 0.537. To C15A G25A belongs 0.341. As for G8A A41G, the self-cleavage was 0.331.

In the case of C11U G39U, the self-cleavage came out at 0.3. Consider G35U G36C, for which the self-cleavage was determined as 0.476. Next, G17C G27U: 0.349. To U14G A26G belongs 0.223; to U28G C29G, 0.547. Regarding G18C U19C, the self-cleavage amounted to 0.375.

As for C3A G31A, the self-cleavage came to 0.912. Next, G8C C11A: 1.43.

Consider A6G C43A, for which the self-cleavage is 0.217. C29U G45U: the self-cleavage was found to be 0.596. For the variant C16G A23C, the self-cleavage was 0.369.

Take U9C C16U: the self-cleavage is 1.41. Next, A1C U9A: 0.399; U19A C29G: 0.295; C15G A37C: 0.364. To U12A G22U belongs 0.328; to U9G G31U, 0.51. Consider G17U C38U, for which the self-cleavage worked out at 0.758. To A6G G8C belongs 0.708. Next, G4U G18U: 0.323; U32G A34U: 1.19; U32G A34C: 0.805. Next, U14C A41C: 0.301; G4A U21C: 0.373; G36U A41G: 0.391. A37G A44G: the self-cleavage came out at 0.74. Next, U19G U32A: 0.366. Consider U9C A42C, for which the self-cleavage turned out to be 0.351. To C11A A34U belongs 0.771. To U24G G27C belongs 0.692.

For G10A C11A, the self-cleavage worked out at 1.09. Next, A41G C43A: 0.317; G17C G25U: 0.296. Next, G22A U32A: 0.306; G8C G22U: 0.341; U21C C30G: 0.403. To U19C U32A belongs 0.551. For the variant G5C A26C, the self-cleavage was 0.282. For C20G C29U, the self-cleavage amounted to 0.336. To G4A G31A belongs 0.641; to G35A G39C, 0.346; to C29A C30A, 0.442. Next, G22C G35U: 0.303; A37G A42U: 0.32. Consider C11G C29U, for which the self-cleavage was found to be 1.28. Next, C2A A42G: 0.344. To A26C A41G belongs 0.307; to U13G C30A, 0.933; to A1G A23C, 0.96. With U32C A42G, the self-cleavage was 0.364.

With G31C A41U, the self-cleavage turned out to be 0.381. Next, C20U C30G: 0.398; C20A A40C: 0.33. Next, A1C G35C: 0.406; U19C U24C: 0.682; U13C A37U: 0.482. Turning to C11U G22A, the self-cleavage is 0.382. A34C A40G: the self-cleavage came to 0.334.

Consider U9C A26G, for which the self-cleavage was found to be 0.379. Next, A26G A42G: 0.225; C3U G27A: 0.93. Turning to C3A G10C, the self-cleavage was 0.587. Next, U13C G27C: 0.985. Consider G18A G36U, for which the self-cleavage came out at 0.496. Turning to G17A A41C, the self-cleavage was found to be 0.259. Next, U12C G33A: 1.25. In the case of U21G A44U, the self-cleavage is 0.285. With C15A G22C, the self-cleavage was 0.3. C11U U32C: the self-cleavage was determined as 0.964. As to U14C C30G, the self-cleavage stood at 0.65.

As for C2A C11U, the self-cleavage stood at 0.431.

For the variant U12A U21G, the self-cleavage was found to be 0.425. For the variant U32A G35C, the self-cleavage stood at 0.796. Next, U32G A40G: 0.342.

In the case of U13A A34C, the self-cleavage stood at 1.5. Next, C3A C20U: 0.319; C2U U9C: 0.983; A42G C43U: 0.326. To C15U G45A belongs 0.842; to U7G U19C, 0.512.

As to G17A A42C, the self-cleavage turned out to be 0.341.

As to G36A A44U, the self-cleavage was found to be 0.332. As for G18A A44G, the self-cleavage is 0.702. To G10U G39U belongs 0.313. Next, G10U G39C: 0.379.

U19C G25A: the self-cleavage came to 0.312. Next, A37C A40U: 0.268; U21A U32C: 0.508; G33U C38G: 0.67. For U13C G22U, the self-cleavage came to 0.346.

On to G35U A41C, for which the self-cleavage was found to be 0.305. Consider C3A G45A, for which the self-cleavage was 0.358. Next, G8U U9G: 0.751.

As to C29A A44U, the self-cleavage turned out to be 0.407. With A34U C43G, the self-cleavage came out at 0.315.

On to G8A U13G, for which the self-cleavage turned out to be 1.24.

For G17A U19A, the self-cleavage turned out to be 0.386.

For U19C U28G, the self-cleavage is 0.435. Regarding G5U A23U, the self-cleavage is 0.356. Next, U14A G33A: 0.751. Next, U7A A42C: 0.358; U9C G36U: 0.683.

Take U24G A42U: the self-cleavage was 0.324. To G22U C30U belongs 0.344; to U9A G22U, 0.311.

G5U C11U: the self-cleavage turned out to be 0.458. Next, U13C A26C: 0.782; G17U C30G: 0.59; U9C A23G: 0.361.

As to G22U U32C, the self-cleavage was 0.272. With U21C G36C, the self-cleavage was found to be 0.366.

For G4U U9G, the self-cleavage is 0.368.

With C2G G45C, the self-cleavage was 0.331. U13A U21C: the self-cleavage stood at 0.908. To U7G G39C belongs 0.293; to U7G G39A, 0.369; to C3A A37U, 0.388. To C2A C38A belongs 0.381; to C11A U14G, 1.27. To C20A C30U belongs 0.498. Consider G5C C11A, for which the self-cleavage is 0.761. To A26C G33A belongs 0.655. Next, C16U U19C: 0.572; C2A C43U: 0.308; C2A C43G: 0.338.

As to A6C U24C, the self-cleavage was 0.387. Regarding C3U G4A, the self-cleavage came out at 0.387. Next, G33C G45A: 0.873; U28A C38G: 0.521; G10U U28A: 0.771. To U7C C16U belongs 1.06; to G22U U28C, 0.312; to U9G G27U, 0.329. With G10A G22C, the self-cleavage was determined as 0.32.

A6G U14G: the self-cleavage was 1.13.

With C11U G45U, the self-cleavage is 0.497. In the case of A1G U14C, the self-cleavage was 1.19. To G10U U13A belongs 1.48. As for G31U U32C, the self-cleavage amounted to 0.69.

As for U24G A37G, the self-cleavage was determined as 0.659. To A6G U19G belongs 0.264; to G22U C29G, 0.317. To A6U A44C belongs 0.455; to A6G U12C, 0.802.

As for G10C C38G, the self-cleavage was determined as 0.582.
